The results in this text go back to patent US20240269194A1, “COMPOSITIONS AND METHODS FOR ISLET CELL TRANSPLANTS” (City of Hope, priority 2021, published 2024).

The target of the test is T1, gastrin receptor CCKBR on human islets (human) (UniProt P32239).
T1 sequence (looked up): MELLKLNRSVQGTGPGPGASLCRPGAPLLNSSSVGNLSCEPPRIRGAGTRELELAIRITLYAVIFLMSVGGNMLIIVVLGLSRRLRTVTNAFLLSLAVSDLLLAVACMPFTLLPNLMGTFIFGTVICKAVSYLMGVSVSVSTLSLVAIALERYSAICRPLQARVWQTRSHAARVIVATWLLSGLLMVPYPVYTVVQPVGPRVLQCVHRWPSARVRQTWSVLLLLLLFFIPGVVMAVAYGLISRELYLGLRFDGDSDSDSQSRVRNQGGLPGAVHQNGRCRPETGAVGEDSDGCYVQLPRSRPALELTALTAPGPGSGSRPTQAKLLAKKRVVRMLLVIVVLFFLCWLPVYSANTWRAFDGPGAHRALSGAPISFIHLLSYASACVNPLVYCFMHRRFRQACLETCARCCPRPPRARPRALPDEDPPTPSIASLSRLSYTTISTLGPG
In words: cell-based or functional assay.

In the case of “gastrin analogue [Leu^15] Gastrin-17 (GAST-17) (peptide)”, the glucagon mRNA (qPCR) in human islets from donors with high HbA1c, 100 nM gastrin was 1.8 fold; the insulin mRNA (qPCR) in human islets from donors with high HbA1c, 100 nM gastrin is > 2 fold; the somatostatin mRNA (qPCR) in human islets from donors with high HbA1c, 100 nM gastrin amounted to 2.5 fold.
